Experimental data as given in patent US20110263824A1.

Target: human serum protein
Experiment: human serum (1:800) adsorbed to TM2 variant-immobilized magnetic beads, HRP-labeled anti-human IgG detection

Non-specific binding to serum protein (A450): 0.56 A450
Substance: TM2 D40NR104E
